T1: recombinant human activin A (human, UniProt P08476 311-426)
T1 sequence (looked up): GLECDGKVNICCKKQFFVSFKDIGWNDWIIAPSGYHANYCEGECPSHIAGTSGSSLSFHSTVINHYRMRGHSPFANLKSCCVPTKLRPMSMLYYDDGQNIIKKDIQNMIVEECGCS

T2: activin B (UniProt P09529 293-407)
T2 sequence (looked up): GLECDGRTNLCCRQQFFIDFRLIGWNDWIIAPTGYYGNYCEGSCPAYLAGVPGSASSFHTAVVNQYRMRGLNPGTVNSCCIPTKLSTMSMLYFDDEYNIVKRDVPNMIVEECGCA

T3: BMP-9 (UniProt Q9UK05 320-429)
T3 sequence (looked up): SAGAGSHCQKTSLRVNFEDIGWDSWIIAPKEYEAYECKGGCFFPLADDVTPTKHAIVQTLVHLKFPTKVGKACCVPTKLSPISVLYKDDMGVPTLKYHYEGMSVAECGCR

T4: BMP-10 (UniProt O95393 317-424)
T4 sequence (looked up): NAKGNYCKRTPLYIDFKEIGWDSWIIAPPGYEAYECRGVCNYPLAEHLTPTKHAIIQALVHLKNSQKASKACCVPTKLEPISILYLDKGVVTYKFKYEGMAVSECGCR

T5: BMP-9 (Homo sapiens, UniProt Q9UK05)
T5 sequence (Q9UK05 320-429): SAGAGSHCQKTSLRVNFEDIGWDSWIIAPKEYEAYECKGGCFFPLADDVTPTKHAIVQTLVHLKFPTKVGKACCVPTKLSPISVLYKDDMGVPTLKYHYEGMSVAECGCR


Assays:
[1] = SEC-HPLC monomer and HMW content of purified fusion proteins; assay type: physicochemical; conditions: after Protein A purification
Text: Given that protein aggregation can be indicative of reduced conformational stability and decreased activity, Size-Exclusion Chromatography-High Performance Liquid Chromatography (SEC-HPLC) was used to determine the purity of each ActRIIB-ECD construct. This method measured the percentage of intact monomeric species as well as the presence of aggregates and/or degradation products.
All proteins expressed efficiently in CHO and/or 293 cells and purification efficiency of each using Protein A affinity chromatography was similar.

[2] = Single-injection body weight gain in wild-type mice; assay type: in vivo; conditions: single 25 mg/kg subcutaneous injection, after 4 days, vs vehicle
Protocol: To investigate the target engagement of exemplary ActRIIB-ECD polypeptide constructs in vivo, mice (n=6/group) were injected with given agents (25 mg/kg, subcutaneous injection), and sacrificed after 4 days to assess body weight gain.

[3] = Skeletal muscle mass and Mss51 expression in lean mice; assay type: in vivo; conditions: 25 mg/kg twice weekly, seven days
Protocol: The effects of P1229 on body composition and metabolism in lean mice were further assessed.
Additional assays were performed to assess the relative expression level of Mss51, a skeletal muscle-specific gene. Mss51 is a key target of myostatin signaling, with a role in fatty acid oxidation, glycolysis, and oxidative phosphorylation.

[4] = system: diet-induced obese (DIO) mice; test: Body composition and metabolism in diet-induced obese (DIO) mice; assay type: in vivo; conditions: 3 weeks s.c., P75, P1229 25 mg/kg twice weekly, P1373 5, 20, 50 mg/kg twice weekly, P1307 20 mg/kg weekly
Protocol: Experiments were performed to assess the effects of P1229 on body composition and metabolism in diet-induced obese (DIO) mice. DIO mice were purchased from Jackson Laboratories (#380050). Briefly, mice were fed a high-fat diet (HFD, 60% kcal from fat) from 6 weeks of age until 22 weeks of age (total of 16 weeks on the HFD). […] After 3 weeks of treatments, some animals were sacrificed and scanned by EchoMRI […] (FIGS. 11A-F), while others were sacrificed for tissue collection and RNA analysis. Animals were maintained on the HFD throughout the acclimatization and treatment periods. The murine version of bimagrumab used for these experiments comprises the heavy chain amino acid sequence of SEQ ID NO: 376 and the light chain sequence of SEQ ID NO: 377.

[5] = target: T1, recombinant human activin A; test: cell-based or functional assay
activin B = target: T2, activin B; test: cell-based or functional assay
GDF-8 = GDF-8 (UniProt O14793 267-375); test: cell-based or functional assay
GDF-11 = GDF-11 (UniProt O95390 299-407); test: cell-based or functional assay
Chain of GDF-11 (O95390 299-407 limits assumed): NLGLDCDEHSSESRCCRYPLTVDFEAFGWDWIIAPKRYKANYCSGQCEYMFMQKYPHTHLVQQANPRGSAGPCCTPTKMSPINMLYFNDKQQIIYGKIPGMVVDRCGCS

BMP-9 [6] = target: T3, BMP-9; test: cell-based or functional assay
BMP-10 = target: T4, BMP-10; test: cell-based or functional assay
TGFβ superfamily ligands = test: Neutralization profile across TGFβ superfamily ligands (HEK293 and HepG2 reporter assays, summary); assay type: cell-based, human
Protocol: Potency testing by neutralization on cell-based assays. Characterization of the activin A, activin B, GDF-8, and GDF-11 inhibition potency (IC50) of the fusion proteins was performed using a cell-based reporter assay. TGFβ-reporter HEK293 cells were obtained from InvivoGen (San Diego, CA, cat. no. hkb-tgfb) and were maintained following the manufacturer's instructions. Briefly, cells were grown in high-glucose DMEM, containing 10% heat-inactivated FBS, 30 μg/mL blasticidin, 250 μg/mL hygromycin B, and 100 μg/mL zeocin (hereafter, “growth medium”). Once the cells reached 70-80% confluence, they were detached in growth medium by gently tapping on the flask. For all assays, cells were seeded in 96-well plates at a density of 20,000 cells per well in growth medium. Cells were left to attach for 10 minutes at room temperature (RT) prior to being transferred to a 37° C. incubator (5% CO2) overnight. The next day, treatments were prepared by combining the appropriate concentration of agent with activin A, activin B, GDF-8, or GDF-11 for 30 min at RT (shaking at 150 rpm). Treatments were conducted in high-glucose DMEM (serum-free and with no selection agents), and the final concentration of cytokine (ligand) was 0.3 nM. Growth medium was removed from the culture plates, and cells were treated with the appropriate mixes of fusion protein and cytokine. Treatment duration was for 18-22 h at 37° C. (5% CO2). All treatments were performed in technical duplicates and at least one or two independent experiments were conducted for each cytokine. At the end of the treatment period, supernatants were transferred to a new plate, and centrifuged at 300 RPM for 3 min. Forty microlitres of supernatant from each condition was transferred to a new plate, into which 180 μL of Quanti-Blue reagent (InvivoGen, cat. no. rep-qbs) was added. Quanti-Blue reagent was prepared following the manufacturer's instructions. Samples were incubated for 45 min at 37° C. At the end of the incubation, absorbance was read at 650 nm. The data were plotted in GraphPad Prism, which was used to calculate IC50 values as a non-linear regression.
Characterization of the BMP-9 and BMP-10 inhibition potency (IC50) of the fusion proteins was performed using a second cell-based reporter assay. Human hepatic HepG2 cells were transfected with a SEAP-encoding plasmid, in which SEAP expression is under the control of the murine Id1 promoter. A stable pool was generated from this transfection. Cells were grown in EMEM, containing 10% heat-inactivated FBS and 200 μg/mL zeocin (hereafter, “HepG2 growth medium”). […] For all assays, cells were seeded in 96-well plates at a confluence of 100,000 cells per well in HepG2 growth medium. Cells were left to attach for 10 minutes at RT prior to being transferred to a 37° C. incubator (5% CO2) overnight. The next day, treatments were prepared in EMEM (2.5% heat-inactivated FBS and with no selection agents) by combining the appropriate concentration of agent with BMP-9 or BMP-10 for 30 min at RT (shaking at 150 rpm). Treatments were conducted in EMEM (2.5% heat-inactivated FBS and with no selection agents), and the final concentration of BMP-9 and BMP-10 was 2 ng/mL and 40 ng/mL, respectively. HepG2 growth medium was removed from the culture plates, and cells were treated with the appropriate mixes of fusion protein and cytokine. Treatment duration was for 20-24 h at 37° C. (5% CO2). […]

BMP-9 [7] = target: T5, BMP-9; test: Small-scale BMP-9 ELISA with CHO supernatants; assay type: binding; conditions: BMP-9 10 ng/mL
Protocol: Small-scale testing of ActRIIB-ECD fusion proteins. Additional investigation of a series of exemplary agents was performed using proteins expressed in CHO cells. Briefly, DNA encoding the ActRIIB-ECD-Fc fusion constructs was transfected in cells seeded in 12-well plates in a final volume of 1 ml. After 7 days, the supernatant was harvested, clarified, and the amount of expressed protein in each well was quantified using standard methods. The potency of each agent for inhibition of activin A, BMP-9 and BMP-10 was determined in three separate assays.
The next day, the plate was washed three times. […] Expressed proteins in the supernatants were diluted 1 in 2 in assay diluent (0.5% BSA, 0.05% tween-20 in PBS) and 100 μl was added to the 96-well plate in technical duplicates. After a 1.5-hour incubation at RT, the plate was washed three times. […] In this assay, a loss of signal indicates less binding of the exemplary agent to BMP-9. Results are expressed as a % of the signal obtained with wild-type ActRIIB-Fc (P75).

Activin A IC50; TGFβ-reporter HEK293 cells [5] [nM]	Activin B IC50; TGFβ-reporter HEK293 cells (activin B) [nM]	GDF-8 IC50; TGFβ-reporter HEK293 cells (GDF-8) [nM]	GDF-11 IC50; TGFβ-reporter HEK293 cells (GDF-11) [nM]	BMP-9 IC50; BMP-reporter HepG2 cells (BMP-9 [6]) [nM]	BMP-10 IC50; BMP-reporter HepG2 cells (BMP-10) [nM]	BMP-9 binding, ELISA signal relative to P75 (BMP-9 [7])	Molecule	high molecular weight (HMW) content (SEC-HPLC) [1] [%]	monomer content (SEC-HPLC) [1] [%]	body weight gain [2]	tibialis anterior and gastrocnemius weight [3]	fat mass and lean mass (EchoMRI) [4]	impact of modifications in the Fc sequence on activin A, activin B, GDF-8, and GDF-11 potency (TGFβ superfamily ligands; all ligands)	impact of modifications in the Fc sequence on BMP-9 and BMP-10 potency (TGFβ superfamily ligands; both ligands)
–	–	–	–	–	–	–	P75: human wild type ActRIIB-ECD linked to human IgG1 Fc domain by a triple glycine linker; SEQ ID NO: 171; benchmark [reference compound]	16	84	statistically significant body weight gain	significantly increased	promoted lean mass gain but less fat loss	–	–
0.53	2	0.33	0.39	> 1000	> 100	–	P1375 (Fc fusion) ETRECIYYNANWELERTNQSGLERCEGEQDKRWHCYASWRNSSGTIELVKKGCWLDDFNCYDRQECVATEENPQVYFCCCEGNFCNERFTHLPEAGGPEVTYEPPPTGGGGSGGGGSGGGGSGGGGTHTCPPCPAPELLGGPSVFLFPPKPKDTLYITREPEVTCVVVDVSHEDPEVKFNWYVDGVEVHNAKTKPREEQYNSTYRVVSVLTVLHQDWLNGKEYKCKVSNKALPAPIEKTISKAKGQPREPQVYTLPPSRDELTKNQVSLTCLVKGFYPSDIAVEWESNGQPENNYKTTPPVLDSDGSFFLYSKLTVDKSRWQQGNVFSCSVMHEALHNHYTQKSLSLSPG	–	–	–	–	–	–	–
–	–	–	–	–	–	near-undetectable binding to BMP-9	P1375: hActRIIB L33W, 19 aa linker, IgG1 YTE-DL Fc; SEQ ID 234 (protein) ETRECIYYNANWELERTNQSGLERCEGEQDKRWHCYASWRNSSGTIELVKKGCWLDDFNCYDRQECVATEENPQVYFCCCEGNFCNERFTHLPEAGGPEVTYEPPPTGGGGSGGGGSGGGGSGGGGTHTCPPCPAPELLGGPSVFLFPPKPKDTLYITREPEVTCVVVDVSHEDPEVKFNWYVDGVEVHNAKTKPREEQYNSTYRVVSVLTVLHQDWLNGKEYKCKVSNKALPAPIEKTISKAKGQPREPQVYTLPPSRDELTKNQVSLTCLVKGFYPSDIAVEWESNGQPENNYKTTPPVLDSDGSFFLYSKLTVDKSRWQQGNVFSCSVMHEALHNHYTQKSLSLSPG	0	99	–	–	–	comparable to P1373	comparable to P1373

Source: US20260193317A1, “COMBINATION THERAPY WITH ACTRIIB RECEPTOR VARIANTS AND GLP-1 AGONISTS” (35PHARMA Inc., priority 2023, published 2026)
